Source: US20250011363A1, “OPTIMIZED SHORTENED PEPTIDE THAT BINDS TO ACETYLCHOLINE RECEPTOR, AND USE THEREOF” (SKINMED CO., LTD., priority 2021, published 2025)

These substances were tested against acetylcholine receptor (Homo sapiens, UniProt P02708) (assay: SPR binding affinity (RU) of optimized 5mer/6mer/7mer peptides, Examples 6-7). Conditions: 6mer-1 Top sequence; SPR; peptides tested at 10 μM.
acetylcholine receptor, sequence (P02708 21-457): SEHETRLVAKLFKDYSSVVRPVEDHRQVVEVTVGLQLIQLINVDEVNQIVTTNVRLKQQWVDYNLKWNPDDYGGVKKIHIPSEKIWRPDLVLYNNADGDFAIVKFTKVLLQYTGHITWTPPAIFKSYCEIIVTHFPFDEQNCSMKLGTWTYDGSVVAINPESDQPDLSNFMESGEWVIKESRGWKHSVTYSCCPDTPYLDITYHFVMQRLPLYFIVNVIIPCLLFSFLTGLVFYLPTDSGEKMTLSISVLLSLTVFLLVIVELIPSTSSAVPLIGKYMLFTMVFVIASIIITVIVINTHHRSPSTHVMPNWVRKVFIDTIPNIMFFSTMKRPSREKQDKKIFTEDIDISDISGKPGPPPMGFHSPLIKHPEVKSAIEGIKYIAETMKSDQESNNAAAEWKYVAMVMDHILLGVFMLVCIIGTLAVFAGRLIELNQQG
Summary of the method: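 600 peptides per series (5mer, 6mer-1, 6mer-2), made from high- or low-frequency amino acid combinations, are screened by SPR at 10 μM; binding is recorded in RU.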
6mer-1-237 (RKSRYK) gave a Binding affinity of 137 Ru. Work on 6mer-1-253 (RRVQLK) yielded a Binding affinity of 145 Ru. With 6mer-1-275 (RKRVLK) the Binding affinity was 123 Ru.

Same assay, conditions: 6mer-2 Top sequence; SPR; peptides tested at 10 μM
In the case of 6mer-2-24 (KGIQRK), the Binding affinity is reported as 141 Ru. 6mer-2-124 (KWQLKR) was tested, and the Binding affinity was 126 Ru.

Same assay, conditions: SPR, Resonance Units; 5mer Bottom sequence (bottom combinations); peptides tested at 10 μM
In the case of 5mer-1000 (KHCWR), the Binding affinity is reported as 20 Ru. 5mer-777 (RYNWK) showed a Binding affinity of 28 Ru. Substance 5mer-1059 (RMAGR) has a Binding affinity of 29 Ru. Work on 5mer-1105 (RPTKR) yielded a Binding affinity of 33 Ru. Substance 5mer-629 (RPTNK) has a Binding affinity of 32 Ru. 5mer-1020 (KCKVK) was tested, and the Binding affinity was 12 Ru. With 5mer-686 (RFNIR) the Binding affinity was 18 Ru. For 5mer-637 (KCDHK), the Binding affinity was 28 Ru. 5mer-931 (RITER) showed a Binding affinity of 11 Ru. With 5mer-907 (KDSVR) the Binding affinity was 18 Ru. 5mer-1043 (KFEMK) was tested, and the Binding affinity was 15 Ru. 5mer-615 (KCCNR) gave a Binding affinity of 20 Ru.

Same assay, conditions: SPR, Resonance Units; peptides tested at 10 μM; 6mer-1 Bottom sequence
In the case of 6mer-1-1003 (RKYCHR), the Binding affinity is reported as 24 Ru. For 6mer-1-1107 (KRCPPR), the Binding affinity was 36 Ru. With 6mer-1-1085 (KREAMK) the Binding affinity was 33 Ru. 6mer-1-1081 (KRPSNK) showed a Binding affinity of 23 Ru. In the case of 6mer-1-1196 (KKTTGR), the Binding affinity is reported as 25 Ru.

Same assay, conditions: SPR, Resonance Units; peptides tested at 10 μM; 6mer-1 Bottom sequence (Table 11)
For 6mer-1-698 (KRFNHK), the Binding affinity was 27 Ru. Work on 6mer-1-643 (KRYSMR) yielded a Binding affinity of 31 Ru. In the case of 6mer-1-703 (KKFHPR), the Binding affinity is reported as 18 Ru. Work on 6mer-1-604 (KKFTKK) yielded a Binding affinity of 24 Ru. 6mer-1-670 (KKDWNR) gave a Binding affinity of 11 Ru. Substance 6mer-1-662 (KKMTER) has a Binding affinity of 20 Ru. With 6mer-1-648 (KKFWEK) the Binding affinity was 17 Ru.

Same assay, conditions: SPR, Resonance Units; peptides tested at 10 μM; 6mer-2 Bottom sequence
Substance 6mer-2-631 (KYCMKR) has a Binding affinity of 16 Ru. In the case of 6mer-2-763 (KMKERR), the Binding affinity is reported as 19 Ru. 6mer-2-988 (KMCEKK) showed a Binding affinity of 41 Ru. 6mer-2-738 (KPWFKK) was tested, and the Binding affinity was 29 Ru. 6mer-2-823 (REDWRK) gave a Binding affinity of 25 Ru. With 6mer-2-604 (KEPIRK) the Binding affinity was 16 Ru. 6mer-2-853 (KHTGRR) showed a Binding affinity of 29 Ru. Substance 6mer-2-845 (KMKEKR) has a Binding affinity of 14 Ru. 6mer-2-743 (KHTMKR) gave a Binding affinity of 18 Ru. Substance 6mer-2-983 (RTWHRR) has a Binding affinity of 37 Ru. 6mer-2-839 (KNHNRR) gave a Binding affinity of 32 Ru. Substance 6mer-2-846 (RFSFKR) has a Binding affinity of 30 Ru.

Same assay, conditions: SPR, Resonance Units; peptides tested at 10 μM; 6mer-2 Top sequence
For 6mer-2-484 (RWYTKR), the Binding affinity was 148 Ru. For 6mer-2-472 (RSRLRR), the Binding affinity was 148 Ru. Work on 6mer-2-562 (RQQRKR) yielded a Binding affinity of 136 Ru. In the case of 6mer-2-492 (RLIQKK), the Binding affinity is reported as 148 Ru. In the case of 6mer-2-545 (KLYCRK), the Binding affinity is reported as 125 Ru. 6mer-2-460 (RSQCRK) was tested, and the Binding affinity was 139 Ru. Work on 6mer-2-512 (RWFTRR) yielded a Binding affinity of 148 Ru.

Same assay, conditions: SPR, Resonance Units; peptides tested at 10 μM; 6mer-2 Top sequence (Table 12)
Substance 6mer-2-398 (RQQRRR) has a Binding affinity of 141 Ru. Work on 6mer-2-261 (RWYTKK) yielded a Binding affinity of 121 Ru. 6mer-2-402 (KRYSRR) gave a Binding affinity of 145 Ru. For 6mer-2-379 (RGVQKR), the Binding affinity was 127 Ru. Substance 6mer-2-353 (RLQTKK) has a Binding affinity of 137 Ru.

Same assay, conditions: SPR, peptides at 10 μM; 6mer-2 Bottom sequence
6mer-2-1023 (KAEFKR) gave a Binding affinity of 26 Ru. In the case of 6mer-2-1139 (KAKAKK), the Binding affinity is reported as 39 Ru. 6mer-2-1085 (RPEIRK) was tested, and the Binding affinity was 42 Ru. With 6mer-2-1061 (KPPIKK) the Binding affinity was 38 Ru.

Same assay, conditions: SPR, peptides tested at 10 μM; 5mer Top sequence
With 5mer-497 (KRRCR) the Binding affinity was 76 Ru. 5mer-52 (RQQYK) showed a Binding affinity of 50 Ru. 5mer-318 (KRVCK) was tested, and the Binding affinity was 64 Ru. With 5mer-142 (RQYSR) the Binding affinity was 52 Ru. For 5mer-168 (KLFSK), the Binding affinity was 84 Ru. With 5mer-87 (RQITR) the Binding affinity was 55 Ru. Work on 5mer-115 (RWLLR) yielded a Binding affinity of 75 Ru. 5mer-405 (KSYTK) showed a Binding affinity of 68 Ru. For 5mer-36 (RRLQK), the Binding affinity was 60 Ru. Substance 5mer-78 (KVICK) has a Binding affinity of 79 Ru. Substance 5mer-111 (KSVLK) has a Binding affinity of 85 Ru. In the case of 5mer-193 (RVIRK), the Binding affinity is reported as 80 Ru. With 5mer-141 (RWQQR) the Binding affinity was 50 Ru. Work on 5mer-207 (KQVRR) yielded a Binding affinity of 72 Ru. Substance 5mer-335 (KSLTR) has a Binding affinity of 56 Ru. 5mer-192 (KSFRK) was tested, and the Binding affinity was 75 Ru. 5mer-109 (RLQCR) showed a Binding affinity of 68 Ru. Work on 5mer-138 (RQRCR) yielded a Binding affinity of 71 Ru.

Same assay, conditions: SPR, peptides tested at 10 μM; 5mer Top sequence (top combinations)
5mer-222 (KWLLR) was tested, and the Binding affinity was 86 Ru. Substance 5mer-515 (RGQRK) has a Binding affinity of 56 Ru. With 5mer-252 (KQYRK) the Binding affinity was 53 Ru. 5mer-227 (RRQQR) was tested, and the Binding affinity was 84 Ru. 5mer-268 (KRYCK) gave a Binding affinity of 54 Ru. 5mer-544 (RLQLR) showed a Binding affinity of 63 Ru. Substance 5mer-558 (RWRYK) has a Binding affinity of 84 Ru.

Same assay, conditions: SPR, peptides tested at 10 μM; 6mer-1 Bottom sequence (Table 11)
In the case of 6mer-1-926 (KRESDR), the Binding affinity is reported as 40 Ru. Work on 6mer-1-978 (RRKSHK) yielded a Binding affinity of 43 Ru. Work on 6mer-1-993 (KRAHDK) yielded a Binding affinity of 26 Ru. For 6mer-1-857 (KRPAFK), the Binding affinity was 14 Ru. In the case of 6mer-1-798 (RRDCFR), the Binding affinity is reported as 18 Ru.

Same assay, conditions: SPR, peptides tested at 10 μM; 6mer-1 Top sequence
In the case of 6mer-1-488 (KKWYSK), the Binding affinity is reported as 135 Ru. Substance 6mer-1-470 (KKWVYR) has a Binding affinity of 148 Ru. In the case of 6mer-1-423 (RRGYCK), the Binding affinity is reported as 147 Ru. In the case of 6mer-1-504 (RRSITR), the Binding affinity is reported as 122 Ru.

Same assay, conditions: SPR, peptides tested at 10 μM; 6mer-1 Top sequence (top combinations)
Work on 6mer-1-134 (KKSIYR) yielded a Binding affinity of 128 Ru. 6mer-1-20 (KKSRYK) was tested, and the Binding affinity was 147 Ru. 6mer-1-159 (KRLRRK) was tested, and the Binding affinity was 139 Ru. For 6mer-1-183 (KKGQTR), the Binding affinity was 121 Ru. 6mer-1-83 (RRSFLR) showed a Binding affinity of 146 Ru. 6mer-1-180 (RKLVRK) gave a Binding affinity of 146 Ru. 6mer-1-196 (RKWRRK) gave a Binding affinity of 142 Ru. 6mer-1-34 (RKWLYK) was tested, and the Binding affinity was 135 Ru. In the case of 6mer-1-74 (KKVRLR), the Binding affinity is reported as 142 Ru.

Same assay, conditions: SPR; XRRGVRR-7mer and RRGVRRX-7mer
3641 (GRRGVRR) [compound 3641] was tested, and the “Binding affinity, values relative to the RRGVRR sequence” value was 137. For 3662 (RRGVRRA) [compound 3662], the “Binding affinity, values relative to the RRGVRR sequence” value was 118. With 3648 (MRRGVRR) [compound 3648] the “Binding affinity, values relative to the RRGVRR sequence” value was 124.

Same assay, conditions: SPR; XRRQRR-6mer and RRQRRX-6mer
For 3628 (RRQRRM) [compound 3628], the “Binding affinity, relative value to the RRQRR sequence” value (from here on “Binding affinity, relative value”) was 122. In the case of 3616 (KRRQRR) [compound 3616], the “Binding affinity, relative value” value is reported as 173. For 3607 (IRRQRR) [compound 3607], the “Binding affinity, relative value” value was 121. 3625 (RRQRRP) [compound 3625] was tested, and the “Binding affinity, relative value” value was 137. 3631 (RRQRRS) [compound 3631] was tested, and the “Binding affinity, relative value” value was 113.

Same assay, conditions: SPR; peptides tested at 10 μM; 5mer Bottom sequence
5mer-855 (RFMKK) was tested, and the Binding affinity was 18 Ru. In the case of 5mer-829 (KCWHR), the Binding affinity is reported as 26 Ru. In the case of 5mer-1158 (KYNPR), the Binding affinity is reported as 23 Ru. 5mer-1112 (RTTFK) gave a Binding affinity of 29 Ru. In the case of 5mer-1123 (KYEKR), the Binding affinity is reported as 24 Ru. In the case of 5mer-1120 (RPPDR), the Binding affinity is reported as 33 Ru. Work on 5mer-1125 (RYPFK) yielded a Binding affinity of 29 Ru. Work on 5mer-1126 (KPTHK) yielded a Binding affinity of 26 Ru. 5mer-825 (RDEKK) gave a Binding affinity of 14 Ru. In the case of 5mer-837 (RPMDR), the Binding affinity is reported as 28 Ru.
